In assay [1] the target is E-cadherin, endogenous in SK-Mel-28 cells. Kind of assay: Flag IP with mass spectrometry (LFQ). The note with it: read off a plot.
For assay [2], the target named is GSDMA. Kind of assay: Flag IP with mass spectrometry (LFQ). The following applies: SK-Mel-28 cells; read off a plot.

For the substance “Flag-CTNND1 WT, stably expressed in SK-Mel-28 cells (from UniProt O60716) C618S”, the log10 ratio was -2.5 in assay [1] and 2.2 in assay [2].

(Values after article PMC12646662.)
